Substrate: Oc1cc(O)c2c(c1)O[C@H](c1ccc(O)c(O)c1)[C@@H](O)C2
Assay: purified protein
Details: 100 mM acetate buffer pH 5.0, 28 °C, 5-300 μM substrate

B1: SmLAC1 (recombinant MBP-SmLAC1) (Salvia miltiorrhiza) (protein)
chain: MERSLMFSAWVLALLVCLSSFASAAIVEHTFHVKNLTVNKLCRNQVITAVNGSLPGPTLRVHEGDTLVVHVFNKSPYNLTIHWHGIFQILSGWADGPEFATQCPIRPGQSYTYRFNITGQEGTLWWHAHVGWLRATVYGALVIRPRSGHSFPFPKPHREIPIVLGEWWNANVIDVENQALATGAAPNLSDAYTINGHPGNLYPCSSNDTFRLTVVHGKTYLLRIINAALNNQLFFKIANHNLTVVAVDASYTNPYTTDVVLVAPGQTTDVLLTADQTPARYYMAASAYQSAAGVPFDNTTTTGIVAYSGTTPSAPIMPLLPAFNDTPTAHRFFSNLTALVSSRFWAPVPRHVDERMFVTIGLGLSACDLPQCQGPFGLKLAASMNNASFQFPTRLSMLEAFFRGVGGIYTADFPDNPPVRFDYTNSSNSLNQALLNTTKSTKVKKVRFNSTVEVVLQNTAFLGVENHPIHLHGFNFYVLAQGFGNYNPALDTRKFNFVNPQERNTIGVPVGGWAVIRFRANNPGVWLIHCHLDVHLPWGLATAFVVENGPTPATTLPPPPADFPKC
- Km: 21.2 µM

Reference: article PMC11811200
